Laboratory results from PMC4216633 (Journal of nuclear medicine : official publication, Society …, 2014).

What was measured:
[1] = tested on: thrombus; assay: Ex vivo biodistribution in rat model of arterial thrombosis; conditions: rat carotid crush thrombosis
[2] = rat, in vivo, iv
[3] = rat, in vivo

| Substance | uptake at the target site (thrombus), persisted over 5h [1] | elimination half-life of the intact probe in blood [2] | intact probe in blood at 4h post-injection [3] |
| --- | --- | --- | --- |
| FHCHypY(3-Cl)DLCHIL-PXD (disulfide) [FBP8] | 0.5–0.8 % ID/g | 13.8 ± 3.8 min | > 85% |
| FHCHypY(3-Cl)DLCHIL-PXD (disulfide) [FBP9] | 0.5–0.8 % ID/g | 17.9 ± 5.8 min | > 85% |
